# Test system: Fer (mouse)
# Assay: phosphorylation enrichment, bacterial display (enrichment ratio); higher = better substrate or ligand; peptides without Tyr show the background
# 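Further: 11-residue human phosphosite peptides and single-mutation variants displayed on the E. coli surface, counted by deep sequencing, each peptide's frequency after selection divided by its frequency in the unselected input library; frequency after pTyr selection over input frequency; kinase dosed for 20-30% of maximal phosphorylation in three min.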
row,Sequence,phosphorylation enrichment
1,FSKTQYNQVPS [CXADR_Y318_YF],0.551
2,SHISGYAALRR [RAPH1_Y1226_T1228A],0.432
3,ASSPVYVPTTR [GATA6_Y188],0.406
4,RVILRYVNPGN [LAMA3_Y791_T796N],0.609
5,EIELAYRRRPP [GRIN2B_Y1109],0.458
6,DPGVSYHTREE [PDHA1_Y301_R302H],0.383
7,SLIDMYSEVPD [OPA1_Y268_L272P],0.422
8,MGRVKYGAFIN [GLB1_Y485_N484K_YF],0.348
9,REENGYNTFAS [FGF10_Y161_I156R_YF],0.558
10,LFRFGYANTSE [SI_Y1233_C1229Y_YF],0.433
11,VYYYSYLLKNH [PTEN_Y180],0.82
12,VILARYGPAWR [CYP2D6_Y124_F120I],0.407
13,FQKNIYSEELR [LMNA_Y211],0.516
14,RQNNSYTCYTA [SLC20A2_Y386_R382Q],0.528
15,KFDLMYAKCAF [TUBA1A_Y399_R402C],0.68
16,NTGGYYDLYGG [PTPN11_Y63_D61G],3.33
17,LENQTYFKSFE [AKAP9_Y2482],0.67
18,LENSTYQFIRV [CRB1_Y760_YF],15.8
19,SVTCTFSPALN [TP53_Y126_Y126F],0.673
20,ESMLRYDVYGG [STOX1_Y607_E608D],0.462
21,KEAVLYPHLPP [SQSTM1_Y383_A381V],0.363
22,PYSSPYENSLI [EPOR_Y489_N487S],2.52
23,MKSIKYMDKEV [CCDC60_Y41_I46V],0.355
24,LHRAHYDLHHT [AHSG_Y314_R317H],1.36
25,HGEAFYSEVKA [PAK5_Y182_P187A_YF],11
26,YFVVEYRNQKP [MUC17_Y4332_D4334N],0.738
27,TAALWYIFSHT [ENG_Y612_YF],0.496
28,EAVSIYQFYGQ [CBLC_Y402_H405Y],9.22
29,PDGHEYIFVDP [PDGFRA_Y572_YF],0.576

# Biological target: EPHB2 (UniProt P29323)
# Sequence (P29323 whole entry, looked up): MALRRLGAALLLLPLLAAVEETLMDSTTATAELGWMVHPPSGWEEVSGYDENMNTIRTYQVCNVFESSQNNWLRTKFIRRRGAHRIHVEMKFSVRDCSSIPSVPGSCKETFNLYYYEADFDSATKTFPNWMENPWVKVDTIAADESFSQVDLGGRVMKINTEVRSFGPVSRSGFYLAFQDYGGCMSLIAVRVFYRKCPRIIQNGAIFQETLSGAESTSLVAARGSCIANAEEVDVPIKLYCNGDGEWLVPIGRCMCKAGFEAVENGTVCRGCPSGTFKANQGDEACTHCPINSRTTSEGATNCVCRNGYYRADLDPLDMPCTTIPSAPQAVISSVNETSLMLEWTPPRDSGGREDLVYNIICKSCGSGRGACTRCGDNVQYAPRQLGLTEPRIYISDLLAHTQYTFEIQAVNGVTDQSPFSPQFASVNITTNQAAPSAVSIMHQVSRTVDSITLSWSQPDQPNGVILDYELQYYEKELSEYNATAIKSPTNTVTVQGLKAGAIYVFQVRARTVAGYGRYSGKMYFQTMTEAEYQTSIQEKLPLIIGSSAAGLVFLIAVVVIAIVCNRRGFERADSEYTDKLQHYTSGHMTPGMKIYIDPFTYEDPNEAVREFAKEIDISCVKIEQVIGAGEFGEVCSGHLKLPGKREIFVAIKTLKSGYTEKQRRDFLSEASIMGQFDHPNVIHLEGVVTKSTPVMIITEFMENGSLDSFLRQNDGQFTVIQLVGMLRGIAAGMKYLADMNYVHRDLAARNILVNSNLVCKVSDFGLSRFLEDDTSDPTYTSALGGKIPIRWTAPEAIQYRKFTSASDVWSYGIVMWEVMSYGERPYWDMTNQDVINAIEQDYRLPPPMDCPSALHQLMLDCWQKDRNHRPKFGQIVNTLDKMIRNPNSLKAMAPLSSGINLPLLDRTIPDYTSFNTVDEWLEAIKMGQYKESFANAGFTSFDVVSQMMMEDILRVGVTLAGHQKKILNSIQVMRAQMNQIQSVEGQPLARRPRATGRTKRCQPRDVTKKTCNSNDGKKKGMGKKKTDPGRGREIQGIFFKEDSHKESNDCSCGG
# Assay: as above
row,Sequence,phosphorylation enrichment
1,FSKTQYNQVPS [CXADR_Y318_YF],0.858
2,SHISGYAALRR [RAPH1_Y1226_T1228A],0.476
3,ASSPVYVPTTR [GATA6_Y188],0.479
4,RVILRYVNPGN [LAMA3_Y791_T796N],0.711
5,EIELAYRRRPP [GRIN2B_Y1109],0.451
6,DPGVSYHTREE [PDHA1_Y301_R302H],0.429
7,SLIDMYSEVPD [OPA1_Y268_L272P],0.679
8,MGRVKYGAFIN [GLB1_Y485_N484K_YF],0.376
9,REENGYNTFAS [FGF10_Y161_I156R_YF],0.709
10,LFRFGYANTSE [SI_Y1233_C1229Y_YF],0.585
11,VYYYSYLLKNH [PTEN_Y180],1.07
12,VILARYGPAWR [CYP2D6_Y124_F120I],0.614
13,FQKNIYSEELR [LMNA_Y211],0.728
14,RQNNSYTCYTA [SLC20A2_Y386_R382Q],0.76
15,KFDLMYAKCAF [TUBA1A_Y399_R402C],0.723
16,NTGGYYDLYGG [PTPN11_Y63_D61G],3.74
17,LENQTYFKSFE [AKAP9_Y2482],1.24
18,LENSTYQFIRV [CRB1_Y760_YF],1.75
19,SVTCTFSPALN [TP53_Y126_Y126F],0.675
20,ESMLRYDVYGG [STOX1_Y607_E608D],1.08
21,KEAVLYPHLPP [SQSTM1_Y383_A381V],0.579
22,PYSSPYENSLI [EPOR_Y489_N487S],0.596
23,MKSIKYMDKEV [CCDC60_Y41_I46V],0.316
24,LHRAHYDLHHT [AHSG_Y314_R317H],0.674
25,HGEAFYSEVKA [PAK5_Y182_P187A_YF],1.47
26,YFVVEYRNQKP [MUC17_Y4332_D4334N],0.842
27,TAALWYIFSHT [ENG_Y612_YF],0.593
28,EAVSIYQFYGQ [CBLC_Y402_H405Y],11.6
29,PDGHEYIFVDP [PDGFRA_Y572_YF],0.719

# Test system: c-Src
# Assay: as above
row,Sequence,phosphorylation enrichment
1,FSKTQYNQVPS [CXADR_Y318_YF],0.613
2,SHISGYAALRR [RAPH1_Y1226_T1228A],0.44
3,ASSPVYVPTTR [GATA6_Y188],0.51
4,RVILRYVNPGN [LAMA3_Y791_T796N],0.75
5,EIELAYRRRPP [GRIN2B_Y1109],0.353
6,DPGVSYHTREE [PDHA1_Y301_R302H],0.41
7,SLIDMYSEVPD [OPA1_Y268_L272P],0.747
8,MGRVKYGAFIN [GLB1_Y485_N484K_YF],0.458
9,REENGYNTFAS [FGF10_Y161_I156R_YF],0.827
10,LFRFGYANTSE [SI_Y1233_C1229Y_YF],0.376
11,VYYYSYLLKNH [PTEN_Y180],1.63
12,VILARYGPAWR [CYP2D6_Y124_F120I],0.503
13,FQKNIYSEELR [LMNA_Y211],1.81
14,RQNNSYTCYTA [SLC20A2_Y386_R382Q],0.915
15,KFDLMYAKCAF [TUBA1A_Y399_R402C],0.598
16,NTGGYYDLYGG [PTPN11_Y63_D61G],5.05
17,LENQTYFKSFE [AKAP9_Y2482],0.579
18,LENSTYQFIRV [CRB1_Y760_YF],3.85
19,SVTCTFSPALN [TP53_Y126_Y126F],0.541
20,ESMLRYDVYGG [STOX1_Y607_E608D],1.29
21,KEAVLYPHLPP [SQSTM1_Y383_A381V],0.464
22,PYSSPYENSLI [EPOR_Y489_N487S],0.875
23,MKSIKYMDKEV [CCDC60_Y41_I46V],0.375
24,LHRAHYDLHHT [AHSG_Y314_R317H],0.505
25,HGEAFYSEVKA [PAK5_Y182_P187A_YF],4.05
26,YFVVEYRNQKP [MUC17_Y4332_D4334N],0.836
27,TAALWYIFSHT [ENG_Y612_YF],0.722
28,EAVSIYQFYGQ [CBLC_Y402_H405Y],7.02
29,PDGHEYIFVDP [PDGFRA_Y572_YF],0.495

# Biological target: Hck (UniProt P08631)
# Sequence (P08631 whole entry, looked up): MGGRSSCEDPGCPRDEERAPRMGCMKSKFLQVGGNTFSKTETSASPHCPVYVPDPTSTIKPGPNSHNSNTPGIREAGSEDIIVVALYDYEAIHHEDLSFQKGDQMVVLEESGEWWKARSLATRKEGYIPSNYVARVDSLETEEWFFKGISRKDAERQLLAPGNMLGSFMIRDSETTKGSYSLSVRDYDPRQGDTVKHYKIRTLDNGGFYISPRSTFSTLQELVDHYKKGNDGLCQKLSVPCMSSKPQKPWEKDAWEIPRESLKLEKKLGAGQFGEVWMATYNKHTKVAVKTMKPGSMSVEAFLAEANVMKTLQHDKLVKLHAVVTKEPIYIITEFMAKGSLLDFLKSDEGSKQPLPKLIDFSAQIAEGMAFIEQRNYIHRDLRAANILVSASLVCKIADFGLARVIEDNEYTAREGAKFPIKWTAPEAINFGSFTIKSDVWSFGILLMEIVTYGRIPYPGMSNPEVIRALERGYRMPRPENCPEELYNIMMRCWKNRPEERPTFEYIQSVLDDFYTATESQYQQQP
# Assay: as above
row,Sequence,phosphorylation enrichment
1,FSKTQYNQVPS [CXADR_Y318_YF],0.598
2,SHISGYAALRR [RAPH1_Y1226_T1228A],0.431
3,ASSPVYVPTTR [GATA6_Y188],0.646
4,RVILRYVNPGN [LAMA3_Y791_T796N],0.775
5,EIELAYRRRPP [GRIN2B_Y1109],0.433
6,DPGVSYHTREE [PDHA1_Y301_R302H],0.551
7,SLIDMYSEVPD [OPA1_Y268_L272P],0.594
8,MGRVKYGAFIN [GLB1_Y485_N484K_YF],0.439
9,REENGYNTFAS [FGF10_Y161_I156R_YF],0.4
10,LFRFGYANTSE [SI_Y1233_C1229Y_YF],0.51
11,VYYYSYLLKNH [PTEN_Y180],1.74
12,VILARYGPAWR [CYP2D6_Y124_F120I],0.602
13,FQKNIYSEELR [LMNA_Y211],1.07
14,RQNNSYTCYTA [SLC20A2_Y386_R382Q],0.694
15,KFDLMYAKCAF [TUBA1A_Y399_R402C],0.677
16,NTGGYYDLYGG [PTPN11_Y63_D61G],8.38
17,LENQTYFKSFE [AKAP9_Y2482],1.22
18,LENSTYQFIRV [CRB1_Y760_YF],7.9
19,SVTCTFSPALN [TP53_Y126_Y126F],0.621
20,ESMLRYDVYGG [STOX1_Y607_E608D],1.3
21,KEAVLYPHLPP [SQSTM1_Y383_A381V],0.385
22,PYSSPYENSLI [EPOR_Y489_N487S],0.705
23,MKSIKYMDKEV [CCDC60_Y41_I46V],0.399
24,LHRAHYDLHHT [AHSG_Y314_R317H],0.553
25,HGEAFYSEVKA [PAK5_Y182_P187A_YF],5.57
26,YFVVEYRNQKP [MUC17_Y4332_D4334N],0.605
27,TAALWYIFSHT [ENG_Y612_YF],0.536
28,EAVSIYQFYGQ [CBLC_Y402_H405Y],7.5
29,PDGHEYIFVDP [PDGFRA_Y572_YF],0.54

# From the supplement of paper PMC10065799, “High-throughput profiling of sequence recognition by tyrosine kinases and SH2 domains using bacterial peptide display” (eLife, 2023)
